Test results taken from article PMC4471362.
Blank lines part the entries; values can stand above or below the substance they belong to.

Legend:
[1] = tested on: Nc1ncnc2c1ncn2[C@@H]1O[C@H](COP(=O)(O)OP(=O)(O)OP(=O)(O)O)[C@@H](O)[C@H]1O; test: purified protein; details: basal ATPase, buffer presumably as for PfHsp70-z (pH 7.5, MgCl2), kcat unit as printed
[2] = target: Plasmodium falciparum Hsp70-z (PfHsp70-z), recombinant (His)6-PfHsp70-z (Plasmodium falciparum); test: SPR; ProteOn XPR36, GLC chip, ligand immobilised by amine coupling (PfHsp70-z, 187 RU); analyte 125-2000 nM at 50 ul/min; 25°C; PBS-Tween with 20 mM EDTA, pH 7.4; no nucleotide; Langmuir model
[3] = target: Plasmodium falciparum Hsp70-z (PfHsp70-z), recombinant (His)6-PfHsp70-z (Plasmodium falciparum); test: SPR; ProteOn XPR36, GLC chip, ligand immobilised by amine coupling (PfHsp70-z, 187 RU); analyte 125-2000 nM at 50 ul/min; 25°C; PBS-Tween with 20 mM EDTA, pH 7.4; with 5 mM ATP; Langmuir model
[4] = target: Plasmodium falciparum Hsp70-z (PfHsp70-z), recombinant (His)6-PfHsp70-z (Plasmodium falciparum); test: SPR; ProteOn XPR36, GLC chip, ligand immobilised by amine coupling (PfHsp70-z, 187 RU); analyte 125-2000 nM at 50 ul/min; 25°C; PBS-Tween with 20 mM EDTA, pH 7.4; with 5 mM ADP; Langmuir model
[5] = target: hHsp70 (Homo sapiens) (UniProt P0DMV8); test: SPR; details: cited from earlier work

Sequence of hHsp70 (P0DMV8 2-641): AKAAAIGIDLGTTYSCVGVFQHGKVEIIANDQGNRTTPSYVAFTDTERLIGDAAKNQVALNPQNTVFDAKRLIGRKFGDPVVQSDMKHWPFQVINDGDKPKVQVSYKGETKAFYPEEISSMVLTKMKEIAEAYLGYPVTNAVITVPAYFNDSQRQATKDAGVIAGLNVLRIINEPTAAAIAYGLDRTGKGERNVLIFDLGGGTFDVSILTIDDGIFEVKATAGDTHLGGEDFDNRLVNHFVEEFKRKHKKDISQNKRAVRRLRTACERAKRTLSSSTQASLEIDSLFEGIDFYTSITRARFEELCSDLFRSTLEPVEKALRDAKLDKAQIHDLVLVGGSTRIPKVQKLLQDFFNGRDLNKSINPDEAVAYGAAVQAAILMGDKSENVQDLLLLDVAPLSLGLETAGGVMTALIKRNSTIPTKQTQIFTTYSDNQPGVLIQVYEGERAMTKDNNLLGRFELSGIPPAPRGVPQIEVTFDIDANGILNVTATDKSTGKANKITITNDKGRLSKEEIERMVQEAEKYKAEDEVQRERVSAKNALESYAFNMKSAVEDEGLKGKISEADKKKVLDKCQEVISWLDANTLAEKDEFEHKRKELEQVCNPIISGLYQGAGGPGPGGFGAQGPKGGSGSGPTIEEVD

Substance: PfHsp70-1 (Plasmodium falciparum 3D7)
- Km [1]: 428 (+/- 5) μM
- Vmax [1]: 0.0246 µmol/min/mg

- Kd [2]: 7.97 nM
- koff [2]: 9.54e-05 s⁻¹
- kon [2]: 12000 M⁻¹ s⁻¹
- Kd [3]: 11.3 nM
- koff [3]: 3.2e-05 s⁻¹
- kon [3]: 2840 M⁻¹ s⁻¹
- Kd [4]: 11.5 nM
- koff [4]: 7.6e-05 s⁻¹
- kon [4]: 6620 M⁻¹ s⁻¹
Substance: Plasmodium falciparum Hsp70-z (PfHsp70-z), recombinant (His)6-PfHsp70-z (natural protein)

Substance: hHsp70 (from UniProt P0DMV8)
- Kd [5]: 4.5 nM
